Measurements published in patent US9822149B2, “Polypeptide having multiple directionality and self-assembled nanostructure containing the same” (INDUSTRY-ACADEMIC COOPERATION FOUNDATION, YONSEI UNIVERSITY, priority 2014, dated 2017).
Non-standard residues stand in square brackets, D forms with d. No end group written: not given here. ebes = not defined here

Legend:
Assay type in all cases: physicochemical
[1] = Transmission electron microscopy (TEM) of negatively stained aggregate
Text: The insert is an enlarged image.

[2] = Diffusion-ordered spectroscopy (DOSY) in solution
[3] = Small-angle X-ray scattering (SAXS) of polypeptide in solution
Protocol: The black circles represent experimental data and the red line represents X-ray scattering data of the most likely model obtained using DAMMIF.
As shown in FIG. 10 and FIG. 11, a form factor (P(q)) and an electron pair distance distribution function p(r) were obtained to investigate the shape and size of the polypeptide prepared in Example 2 (ODβ-S).
For the polypeptide prepared in Example 2 (ODβ-S), Rg,p(r) was calculated to be 11.01±0.078 Å and Dmax was calculated to be 34.0 Å.

Row | Substance | aggregate morphology [1] | D (diffusion coefficient) [2] | hydrodynamic radius R(H) [2] | aggregation state [3] | Dmax ([3]; from p(r)) | Rg,p(r) ([3]; from p(r) using GNOM)
1 | Comparative Example 2: comparative naturally directed β-α-β polypeptide WKWEWYWKWEW-GSGS-A(EAAAK)2A-GS-... (SEQ ID NOS 13 and 3) (chain 1 WKWEWYWKWEWGSGSAEAAAKEAAAKAGSK; chain 2 WEWKWYWEWKW; also: chain 2 joined at Lys30 side chain (εK branch)) | forms a heterogeneous structure and exists mainly as large-sized aggregates |  |  |  |  | 
2 | Example 2: short polypeptide WKWEW-GSGS-(ebes)GS-εK- with oppositely directed WEWKW (SEQ ID NOS 9 and 10) (chain 1 WKWEWGSGS[ebes]GSK; numbers in words are those of the source; reading uncertain; also: K12 εK branch carrying oppositely directed WEWKW strand (chain 2), printed as WKWEW-GSGS-(ebes)GS-εK-) |  | 1.625×10^−10 m^2/s | 12.27 Å | exists as monomers rather than as aggregates | 34.0 Å | 11.01±0.078 Å
